What was measured:
[1] = target: T1, caspase-3 (Homo sapiens, UniProt P42574); assay: Western blot analysis of caspase-3 cleavage of purified FRET probes; type: biochemical; details: for cleavage by caspase-3 (Western blot): purified protein incubated with caspase-3, 37 degree C, 1-2 hrs, anti-GFP antibody
T1 sequence (P42574 29-175 limits assumed): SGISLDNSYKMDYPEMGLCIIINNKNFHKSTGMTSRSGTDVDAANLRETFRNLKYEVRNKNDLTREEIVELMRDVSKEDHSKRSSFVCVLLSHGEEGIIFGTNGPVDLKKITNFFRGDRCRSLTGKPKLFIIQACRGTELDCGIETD
T1 sequence (P42574 176-277 limits assumed): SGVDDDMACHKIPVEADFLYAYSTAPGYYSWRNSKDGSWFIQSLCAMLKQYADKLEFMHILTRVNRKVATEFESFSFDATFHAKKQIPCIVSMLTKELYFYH
Experimental: Purified FRET probes were incubated with caspase-3 in the reaction buffer at 37. degree. C. for 1-2 hrs. The reaction mixtures were separated on a SDS-PAGE and transferred onto a nitrocellulose membrane. The Protein blot was then probed with anti-GFP antibody (CLONTECH™). Acetyl-Asp-Glu-Val-Asp-aldehyde called CHO (AC-DEVD-CHO) is a chemical derivative of SEQ ID NO: 11 and a caspase-3 specific inhibitor.
To determine whether these FRET probes are sensitive to caspase-3 cleavage; the purified proteins were incubated with caspase-3 and then subjected to Western blot analysis. Antibodies were purchased from CLONTECH™.

[2] = target: T1, caspase-3; assay: Spectrofluorometer measurement of FRET emission spectra before and after caspase-3 treatment; type: biochemical; details: excitation 433 nm; for YFP (526 nm)/CFP (480 nm) emission ratio after caspase treatment: after incubating with caspase-3; for YFP (526 nm)/CFP (480 nm) emission ratio before caspase treatment: before caspase-3
Experimental: The excitation wavelength used to excite CFP in the probe was 433 nm. −cpp32: no caspase-3 in the reaction. +cpp32: caspase-3 was added into the reaction.
The fluorescent energy transfer from CYP to YFP in the FRET probes was measured using a spectrofluorometer. When CFP was excited in each probe at the excitation wavelength of 433 nm, very little emission light was detected from the FRET probes at the known emission wavelength for CFP (480 nm). Instead, a significant amount of emitted fluorescent light was detected at the emission wavelength of YFP which peaks at 526 nm (FIG. 4). […] It was then determined whether the FRET effect was sensitive to the caspase cleavage. The FRET probes were treated with caspase-3 and analyzed using a spectrofluorometer. […] As a control, no change for the emission spectrum was observed from the CFP-YFP fusion protein which lacks the substrate sequence (FIG. 4A). Based on spectra similar to FIG. 4, it was determined the YFP (526 nm)/CFP (480 nm) emission ratio for all three FRET probes before and after caspase treatment. This YFP/CFP ratio was used to quantify the FRET effect.

[3] = target: T1, caspase-3; assay: Dosage-dependent caspase-3 cleavage assay; type: biochemical; details: 1.28 μg sensor protein, caspase-3 0.3125 ng to 1.28 μg, 1 hour; for sensitivity to caspase-3: normalized YFP/CFP ratio
Experimental: Same amount of purified sensor A and sensor B protein was incubated with different amount of caspase-3 ranging from 0.3125 ng to 1.28 μg for 1 hr. The emission spectra of both YFP and CFP were measured for each sample at the end of reaction using a spectrofluorometer. The emission ratio (YFP/CFP) of each sample was normalized to the value of the ratio from a mock control with no caspase-3.
To compare the sensitivity of sensor A and sensor B on caspase-3 activity, a dosage-dependent caspase-3 cleavage assay was performed. In this experiment, 1.28 μg amount of the purified sensor A or sensor B protein was incubated with different amount of caspase-3 ranging from 0.3125 ng to 1.28 μg for 1 hour. The emission spectra of both YFP and CFP were measured for each sample at the end of the reaction using a spectrofluorometer. The emission ratio (YFP/CFP) of each caspase reaction was normalized with that of the mock control having no caspase-3 in the reaction.

[4] = test system: HeLa cells; assay: Imaging of FRET probe in living HeLa cells during UV-induced apoptosis; type: cell-based
Experimental: HeLa cells expressing either sensor A or CFP-YFP fusion protein were induced to apoptosis by UV irradiation for 5 min. When the probe was excited at 440 nm, the fluorescent intensity of CFP (at 480±15 nm) and that of YFP (at 535±12.5 nm) from same cell before (A, C) and after (B, D) UV treatment was recorded using a cooled CCD imaging system. The representative ratio images of YFP/CFP are shown here. A significant FRET reduction is seen only in panel B from both cells expressing sensor A, but not in panel D with cells expressing the control fusion protein.
FIG. 7 is a statistic analysis of FRET changes during apoptosis. Images were recorded as described in FIG. 6. The fluorescent intensities of YFP and CFP were then determined from each image. The average values of YFP/CFP from 13 cells expressing sensor A and 9 cells expressing CFP-YFP fusion protein before and after UV-irradiation are plotted here. Nearly 4-fold reduction in the apoptotic cells expressing was found using the FRET probe but not in the control cells expressing the CFP-YFP fusion gene.
To test whether this FRET probe can be used to detect caspase activity in living cells, sensor A was expressed in HeLa cells and measured the FRET effect of the probe in single cells using a cooled CCD imaging system. The fluorescent images of the cell obtained from the emission wavelengths of CFP and YFP were recorded before and after UV treatment. A computer software (Metamorph, Universal Imaging) was used to generate a ratio image of YFP/CFP for each cell under different treatments. […] At 3 hours after the UV treatment, these cells had entered apoptosis. […] The average YFP/CFP emission ratio changes was calculated for 13 apoptotic cells expressing sensor A, and found a nearly 4-fold reduction after UV treatment (FIG. 7).
Recently, sensor A was used to study the dynamics of caspase-3 activation during UV-induced apoptosis in living HeLa cells.

cleavage of FRET probe (sensor A) by caspase-3 in the presence of inhibitor ([1]; caspase-3 plus inhibitor, Western blot)	cleavage by caspase-3 (Western blot) [1]	change of emission spectrum on caspase-3 treatment [2]	YFP (526 nm)/CFP (480 nm) emission ratio after caspase treatment [2]	YFP (526 nm)/CFP (480 nm) emission ratio before caspase treatment [2]	relative sensitivity to caspase-3 (sensor A versus sensor B) [3]	sensitivity to caspase-3 [3]	Substance	reduction of average YFP/CFP emission ratio after UV treatment ([4]; HeLa cells expressing the probe, before and after UV irradiation, 13 cells sensor A, 9 control cells)	intensity of YFP/CFP ratio image after UV treatment ([4]; HeLa cells, 3 hours after UV treatment)	detection of caspase-3 activation during UV-induced apoptosis ([4]; living HeLa cells)
no FRET probe (sensor A) was cleaved	–	–	–	–	–	–	acetyl-Asp-Glu-Val-Asp-aldehyde [AC-DEVD-CHO, reference compound]	–	–	–
–	caspase-3 can cleave almost all	completely changed	0.59	3.02	slightly more sensitive than sensor B	highly sensitive	sensor A: CFP-YFP FRET fusion protein with 16 amino acid linker SGLRSGGDEVDGGSNS (SEQ ID NO: 7) containing the caspase-3 recognition motif (left off: small tags and cut ends; large carriers)	~4 fold	decease dramatically	clearly detected prior to any visible cell morphological changes
–	caspase-3 can cleave almost all	completely changed	0.59	2.76	–	highly sensitive	sensor B: CFP-YFP FRET fusion protein with 22 amino acid linker SGLRSGGSGGDEVDGGSGGSNS (SEQ ID NO: 10) containing DEVD (left off: small tags and cut ends; large carriers)	–	–	–

Source: patent US7354735B2, “Nucleic acid encoding fluorescent protein constructs and methods for detecting apoptosis” (Hong Kong University of Science and Technology, priority 2001, dated 2008)
